This is an account of results in PMC6316570, “G-Protein Coupled Receptor Protein Synthesis on a Lipid Bilayer Using a Reconstituted Cell-Free Protein Synthesis System” (Life, 2018).

In experiment [1] the target is T1, His-tagged CX3CR1 (human, UniProt P49238 1-355).
T1 construct: CX3CR1 (fractalkine receptor), human cDNA; Two templates are described; The pET28a plasmid has an N-terminal 6xHis tag, the linker DYDIPTT and a TEV site; The linear PCR product takes its His-tag from the reverse primer, which would be C-terminal; In the nanodisc assay the receptor sat in a lipid nanodisc (MSP scaffold, POPC/POPS/cholesterol); In the micelle assay it was in detergent; also called …
T1 sequence (looked up): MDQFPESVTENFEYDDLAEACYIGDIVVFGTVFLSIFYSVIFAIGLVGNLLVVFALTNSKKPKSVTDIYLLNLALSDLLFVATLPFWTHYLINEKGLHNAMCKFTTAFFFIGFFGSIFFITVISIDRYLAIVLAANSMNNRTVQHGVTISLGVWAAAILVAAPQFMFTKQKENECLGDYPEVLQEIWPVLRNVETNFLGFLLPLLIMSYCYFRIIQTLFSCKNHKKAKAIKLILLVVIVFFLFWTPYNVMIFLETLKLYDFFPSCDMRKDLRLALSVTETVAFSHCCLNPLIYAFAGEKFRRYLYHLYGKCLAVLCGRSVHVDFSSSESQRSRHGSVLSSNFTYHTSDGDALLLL
Nature of the experiment: SPR; Biacore T200; unpurified PURE-synthesized His-tagged CX3CR1-nanodisc complex captured (~1500 RU) on Penta-His antibody on CM5 chip; purified CX3CL1 injected; HBS-P (10 mM HEPES pH 7.4, 150 mM NaCl, 0.05% P20), 25 °C, 30 µL/min; single cycle kinetics; 1:1 interaction model. Background: In SPR one partner is held on a chip, and binding of the other changes the refractive index at the surface.

Experiment [2] has as its target T1, His-tagged CX3CR1. Nature of the experiment: SPR; Biacore T200; unpurified PURE-synthesized Strep-tag II CX3CL1 captured (~1000 RU) on StrepMAB-Immo antibody on CM5 chip; purified His-tagged CX3CR1 synthesized with micelles, in detergent, injected; HBS-P, 25 °C, 30 µL/min; single cycle kinetics; 1:1 interaction model. As to conditions: one partner purified.

Take “recombinant CX3CL1 protein (from UniProt P78423 25-397) (ligand)”: the dissociation constant (Kd) (as a rule, the free concentration of one partner at which half of the binding sites on the other are occupied at equilibrium, for simple one-to-one binding) in experiment [1] was found to be 27.8 nM.

B1: strep-II-tagged ligand CX3CL1 (ligand, UniProt P78423 25-100, looked up)
chain: QHHGVTKCNITCSKMTSKIPVALLIHYQQNQASCGKRAIILETRQHRLFCADPKEQWVKDAMQHLDRQAAALTRNG
notes: fractalkine (CX3CL1), amplified from pUREstrept2 plasmid; printed size 8.5 kDa; also called fractalkine; CX3CL1-tagged with Strep-tag II; source: PURE system (cell-free), not purified, immobilized directly; not shown: Strep-tag II, N-terminal, kept
On to B1, for which the affinity in experiment [2], expressed as Kd, was 39.4 nM.
